Experimental data as given in CN110642952A (SHANGHAI INST OF BIOLOGICAL PRODUCTS CO LTD, dated 2020).

B1: HER3鼠源单克隆抗体1044 (antibody, V domains shown)
VH: EVQLQQSGTELMKPGASVKISCKATGGTFSNYWIDWVKQRPGHGLEWIGEILPGSGGTDYNEKFKGKATFTADTSSNTAYMQLSSLTSEDSAVYYCARDDYDVFAYWGQGTLVTVSS
VL: DIVMTQAAFSNPVTLGTSASISCRSSKSLLHSNGITYLYWYLQKPGQSPQLLIYQMSNLASGVPDRFSSSGSGTDFTLRISRVEAEDVGVYYCAQNLELPWTFGGGTKLEIKR
notes: Mouse monoclonal antibody from hybridoma ascites, purified on protein G; also called HER3抗体1044
B2: HER3鼠源单克隆抗体927 (antibody, V domains shown)
VH: EVQLQQSGPELVKPGASVKISCKASGYSFTSYYIHWVKQRPGQGLEWIGWIFPRSGHTNYNEKFKGKATLTADTSSSTAYMQVSSLTSEDSAVYFCARSRDYYGTNAMDYWGQGTSVTVSS
VL: DIVMTQSPSSLTVTAGEKVTMSCKSSQSLFNSGNQKNYLTWYQQKPGQPPKLLIYWASTRESGVPDRFTGSGSGTDFTLTISSVQAEDLAVYYCQNDYSYPYTFGGGTKLEIKR
notes: Mouse monoclonal antibody from hybridoma ascites, purified on protein G; also called HER3抗体927
B3: HER3鼠源单克隆抗体1050 (antibody, V domains shown)
VH: QVQLQQSGPELVKPGASVKISCKASGYSFTSYYIHWVKQRPGQGLEWIGWIFPGSGHTKCNENFKAKATLTADTSSSTAYMQLSSLTSEDSAVYFCARSRDYYGSNAVDYWGQGTSVTVSS
VL: DIVMTQSPSSLTVTAGEKVTMSCKSSQSLLNSGNQKNYLTWYQQKPGQPPKLLIYWASTRESGVPDRFSGSGSGTDFTLTISSVQAEDLAVYYCQNDYSYPYTFGGGTKLEIKR
notes: Mouse monoclonal antibody from hybridoma ascites, purified on protein G; also called HER3抗体1050
B4: HER3鼠源单克隆抗体993 (antibody, V domains shown)
VH: EVKLVESGGGLVKPGGSLKLSCAASGFTFSSYSLSWVRQTPEKRLEWVASITFGGTAYYSDSVKGRFTISRDNARNILYLQMSSLKSEDTAMYYCVRGDGYEDPMDYWGQGTSVTVSS
VL: DIVMTQTTVSLAVSLGQRATISCRASESVDSYGKSFMHWYQQKPGQPPKLLIYRASNLESGIPARFSGSGSRTDFTLTINPVEADDVSTYYCQQSNEDPYTFGGGTKLEIR
notes: Mouse monoclonal antibody from hybridoma ascites, purified on protein G; also called HER3抗体993

What was measured:
HER3-ECD融合蛋白 = biological target: T1, HER3-ECD融合蛋白 (human); assay: competition ELISA: Trx-HRG coated (10 μg/ml), HER3-ECD fusion protein 1 μg/ml pre-incubated with antibody, anti-hGH detection
T1 construct: also called HER3-ECD fusion protein

HER3 = biological target: T2, HER3 (human, UniProt P21860 20-643, limits assumed); assay: ProteOn XPR36 Protein Interaction Array System (SPR)
T2 construct: also called HER3抗原; HER3蛋白
T2 sequence (P21860 20-643 limits assumed): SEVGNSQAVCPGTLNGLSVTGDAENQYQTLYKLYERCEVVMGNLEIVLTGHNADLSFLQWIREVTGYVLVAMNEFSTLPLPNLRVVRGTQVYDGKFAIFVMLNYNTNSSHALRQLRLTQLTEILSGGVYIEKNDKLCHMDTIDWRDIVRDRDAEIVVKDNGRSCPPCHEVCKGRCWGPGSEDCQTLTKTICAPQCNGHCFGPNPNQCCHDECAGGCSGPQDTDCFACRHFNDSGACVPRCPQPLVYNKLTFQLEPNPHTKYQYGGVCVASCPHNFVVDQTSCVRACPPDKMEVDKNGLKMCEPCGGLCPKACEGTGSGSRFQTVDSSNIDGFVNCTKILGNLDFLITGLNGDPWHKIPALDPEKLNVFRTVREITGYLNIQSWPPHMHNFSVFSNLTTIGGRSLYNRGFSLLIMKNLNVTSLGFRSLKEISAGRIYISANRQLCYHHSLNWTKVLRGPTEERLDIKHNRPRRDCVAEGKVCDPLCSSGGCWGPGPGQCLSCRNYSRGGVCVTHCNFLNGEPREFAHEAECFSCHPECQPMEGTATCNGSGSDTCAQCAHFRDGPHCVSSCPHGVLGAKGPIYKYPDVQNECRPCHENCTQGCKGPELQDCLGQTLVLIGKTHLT

| Binder | IC50 (HER3-ECD融合蛋白) | Kd (HER3) |
| --- | --- | --- |
| B1 | 2.3 nM | 0.525 nM |
| B2 | 1.5 nM | 4.13 nM |
| B3 | 2.8 nM | 5.83 nM |
| B4 | 0.3 nM | 0.166 nM |
